From patent US20090060908A1 come the findings set out here.

The assay addresses CD16 (FcγRIII) on human peripheral blood effector cells (human) (UniProt P08637). The assay can be described thus: cell-based or functional assay.

Sequence of CD16 (FcγRIII) on human peripheral blood effector cells (human) (P08637 17-254): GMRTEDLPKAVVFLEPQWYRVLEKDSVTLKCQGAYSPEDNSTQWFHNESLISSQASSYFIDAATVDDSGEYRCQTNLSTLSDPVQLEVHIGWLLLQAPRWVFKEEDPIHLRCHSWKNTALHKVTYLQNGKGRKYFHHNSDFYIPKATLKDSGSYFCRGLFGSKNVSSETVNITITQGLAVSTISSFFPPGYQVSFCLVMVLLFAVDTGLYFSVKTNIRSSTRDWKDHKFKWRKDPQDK

In the case of anti-CD16 antibody 3G8, the % lysis in ADCC by 1 µg/ml 2A10 (fucosylated or defucosylated) with 5 µg/ml anti-CD16 antibody 3G8 is less than 5% and the % lysis in ADCC by 1 µg/ml 7F12 (CHO-derived or chicken-derived) with 5 µg/ml anti-CD16 antibody 3G8 was 4%.
